{
  "source": "paper PMC3717379",
  "about": "(Biochemistry, 2013)",
  "key": {"wildtype SecA": {"molecular_target": "wildtype SecA (Escherichia coli, UniProt P10408)", "experiment": "Fluorescence anisotropy binding of IAN-labeled signal peptide to wildtype SecA"}, "SecA-458C": {"molecular_target": "SecA-458C (Escherichia coli, UniProt P10408, C885S/C887S/C896S/C98S/S458C)", "type": "binding"}, "SecA-506C": {"molecular_target": "SecA-506C (Escherichia coli, UniProt P10408, C885S/C887S/C896S/C98S/M506C)", "type": "binding"}, "SecA-340C": {"molecular_target": "SecA-340C (Escherichia coli, UniProt P10408, C885S/C887S/C896S/C98S/T340C)", "type": "binding"}, "SecA (Escherichia coli) [1]": {"molecular_target": "SecA (Escherichia coli) (UniProt P10408)", "details": "cited from earlier work"}, "SecA (Escherichia coli) [2]": {"molecular_target": "SecA (Escherichia coli) (UniProt P10408)", "details": "cited from earlier work", "remark": "listed apart in the source"}, "[3]": {"molecular_target": "monocysteine SecA mutant SecA-402C (E. coli) (UniProt P10408)", "experiment": "FRET or BRET"}, "[4]": {"molecular_target": "monocysteine SecA mutant SecA-59C (E. coli) (UniProt P10408)", "experiment": "FRET or BRET"}, "[5]": {"molecular_target": "SP22, 22 residue long E. coli alkaline phosphatase signal peptide with cysteine at position 22 (E. coli)", "experiment": "fluorescence polarisation"}, "[6]": {"molecular_target": "monocysteine SecA mutant SecA-340C (E. coli) (UniProt P10408)", "experiment": "FRET or BRET"}, "[7]": {"molecular_target": "monocysteine SecA mutant SecA-458C (E. coli) (UniProt P10408)", "experiment": "FRET or BRET"}, "[8]": {"molecular_target": "monocysteine SecA mutant SecA-506C (E. coli) (UniProt P10408)", "experiment": "FRET or BRET"}, "[9]": {"molecular_target": "monocysteine SecA mutant SecA-696C (E. coli) (UniProt P10408)", "experiment": "FRET or BRET"}, "[10]": {"molecular_target": "wildtype SecA (Escherichia coli) (E. coli, UniProt P10408 1-901)", "experiment": "fluorescence polarisation"}},
  "note": "Like-named read-outs stand apart in the source and are kept apart here. No end group written: not given here. IANBD = IANBD fluorescent probe (code IAN) attached to the cysteine",
  "data": [
    {"molecule": "MCKQSTIALALLPLLYTPVTKARTPEMPVLENRAAQGDITA-NH2 [SP41]", "values": [
      {"measurement": "Kd", "setting": "wildtype SecA", "result": "6.2 ± 0.8", "unit": "µM"},
      {"measurement": "Kd", "setting": "SecA-458C", "result": "4.8 ± 0.6", "unit": "µM"},
      {"measurement": "Kd", "setting": "SecA-506C", "result": "6.3 ± 1", "unit": "µM"},
      {"measurement": "Kd", "setting": "SecA-340C", "result": "6.2 ± 4.3", "unit": "µM"}
    ]},
    {"molecule": "MKQSTIALALLPLLFTPVTKAC-NH2 [SP22]", "values": [
      {"measurement": "Kd", "setting": "SecA-458C", "result": "3 ± 1.7", "unit": "µM"},
      {"measurement": "Kd", "setting": "SecA-506C", "result": "1.5 ± 0.7", "unit": "µM"},
      {"measurement": "Kd", "setting": "SecA-340C", "result": "1.1 ± 0.4", "unit": "µM"}
    ]},
    {"molecule": "SecA (from UniProt P10408)", "values": [
      {"measurement": "Kd", "setting": "SecA (Escherichia coli) [1]", "result": 0.001, "unit": "µM"},
      {"measurement": "Kd", "setting": "SecA (Escherichia coli) [2]", "result": 2.2, "unit": "µM"}
    ]},
    {"molecule": "monocysteine SecA mutant SecA-59C (from UniProt P10408 1-901) (natural protein)", "values": [
      {"measurement": "E FRET (IAE-IAN dye pair)", "setting": "[3]", "result": 0.4},
      {"measurement": "E FRET (AF568-AF647 dye pair)", "setting": "[4]", "result": 1},
      {"measurement": "E FRET (IAE-IAN dye pair)", "setting": "[4]", "result": 0.38}
    ]},
    {"molecule": "monocysteine SecA mutant SecA-340C (from UniProt P10408 1-901) (natural protein)", "values": [
      {"measurement": "Kd", "setting": "[5]", "result": 1.1, "unit": "µM"},
      {"measurement": "E FRET (AF488-AF568 dye pair)", "setting": "[6]", "result": 0.78},
      {"measurement": "E FRET (IAE-IAN dye pair)", "setting": "[6]", "result": 0.12},
      {"measurement": "E FRET with SP22 (AF488-AF568 dye pair)", "setting": "[6]", "result": 0.64},
      {"measurement": "E FRET with SP41 (AF488-AF568 dye pair)", "setting": "[6]", "result": 0.23}
    ]},
    {"molecule": "monocysteine SecA mutant SecA-402C (from UniProt P10408 1-901) (natural protein)", "values": [
      {"measurement": "E FRET (AF488-AF568 dye pair)", "setting": "[3]", "result": 0.31},
      {"measurement": "E FRET (IAE-IAN dye pair)", "setting": "[3]", "result": 0.19}
    ]},
    {"molecule": "monocysteine SecA mutant SecA-458C (from UniProt P10408 1-901) (natural protein)", "values": [
      {"measurement": "Kd", "setting": "[5]", "result": 3, "unit": "µM"},
      {"measurement": "E FRET with SP22 (AF488-AF568 dye pair)", "setting": "[7]", "result": 0.45},
      {"measurement": "E FRET with SP41 (AF488-AF568 dye pair)", "setting": "[7]", "result": 0.45}
    ]},
    {"molecule": "monocysteine SecA mutant SecA-506C (from UniProt P10408 1-901) (natural protein)", "values": [
      {"measurement": "Kd", "setting": "[5]", "result": 1.5, "unit": "µM"},
      {"measurement": "E FRET with SP22 (AF568-AF647 dye pair)", "setting": "[8]", "result": 0.67},
      {"measurement": "E FRET with SP41 (AF568-AF647 dye pair)", "setting": "[8]", "result": 0.69}
    ]},
    {"molecule": "monocysteine SecA mutant SecA-696C (from UniProt P10408 1-901) (natural protein)", "values": [
      {"measurement": "Kd", "setting": "[5]", "result": 2.5, "unit": "µM"},
      {"measurement": "E FRET (AF488-AF568 dye pair)", "setting": "[9]", "result": 0.23},
      {"measurement": "E FRET with SP22 (AF568-AF647 dye pair)", "setting": "[9]", "result": 0.42},
      {"measurement": "E FRET with SP41 (AF568-AF647 dye pair)", "setting": "[9]", "result": 0.41}
    ]},
    {"molecule": "MKQSTIALALLPLLFTPVTKAC(IANBD)-NH2", "note": "[SP22, 22 residue long E. coli alkaline phosphatase signal peptide with cysteine at position 22]", "values": [
      {"measurement": "Kd", "setting": "[10]", "result": "1.4 ± 0.2", "unit": "µM"}
    ]}
  ]
}
